# Legend:
# [1] = biological target: FimH variant 5 (recombinant dscFimH-His6) (E. coli | not stated) (UniProt P08191); assay: SPR; BIAcore T200; FimH variant immobilised on CM5 chip (target amount 2,000 RU); GP2 isoforms as analytes at 0.5, 2.0, 6.0, 16 and 29 uM in PBS-P+; 25 C, 30 uL/min; association 3 min, dissociation 10 min; global 1:1 Langmuir fit
# [2] = biological target: FimH variant 9 (recombinant dscFimH-His6) (E. coli | not stated) (UniProt P08191); assay: as above
Substance,Kd [1] [nM],koff [1] [s⁻¹],kon [1] [M⁻¹ s⁻¹],Kd [2] [nM],koff [2] [s⁻¹],kon [2] [M⁻¹ s⁻¹]
"human GP2 isoform 2, recombinant (natural protein)",97.8,0.000102,1040,22.5,2.38e-05,1060
"bovine GP2 isoform 1 (major zymogen granule membrane glycoprotein 2), recombinant secreted form (natural protein)",179,9.65e-05,538,340,0.000187,551
"bovine GP2 isoform 2 (major zymogen granule membrane glycoprotein 2), recombinant secreted form (natural protein)",136,7.41e-05,545,93.4,5.72e-05,612
"porcine GP2 isoform 1, recombinant (natural protein)",22.6,1.71e-05,758,158,8.44e-05,535
"porcine GP2 isoform 2, recombinant (natural protein)",95.7,8.32e-05,870,98.5,8.84e-05,898
"human GP2 isoform 4, recombinant (natural protein)",21.7,1.68e-05,772,0.927,4.31e-07,465
